T1: PUF4 RNA-binding domain (Saccharomyces cerevisiae, UniProt P25339 537-888)
T1 sequence: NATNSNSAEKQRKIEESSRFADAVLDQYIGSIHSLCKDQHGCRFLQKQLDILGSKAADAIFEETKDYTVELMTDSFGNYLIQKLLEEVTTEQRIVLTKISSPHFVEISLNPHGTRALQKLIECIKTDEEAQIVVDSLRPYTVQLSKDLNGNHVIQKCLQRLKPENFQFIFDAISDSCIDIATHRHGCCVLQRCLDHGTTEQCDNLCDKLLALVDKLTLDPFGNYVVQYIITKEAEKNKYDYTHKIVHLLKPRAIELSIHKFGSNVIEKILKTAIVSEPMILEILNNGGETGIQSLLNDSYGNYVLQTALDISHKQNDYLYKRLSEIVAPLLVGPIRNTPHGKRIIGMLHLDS

B1: Ib_S1_P5E.1_K5.1_C5.1_H5.1_[G2A]_A5.1_F5.1_[T8C]_T5.1 (ssRNA)
RNA: UCUCUUUAUAUUACUAUCUCUU
B2: Id_ii_S2_P3E.2_K3.1_C3.2_[C-2T]_H3.1_A3.1_F3.1_T3.2 (ssRNA)
RNA: UUUGAUUAAUAUGAUAUCGUUCUUUCUUUUGUAUAUAUAUUCUUUCUCGAUAUCAUAUUAAUCUUU
B3: Id_ii_S2_P3E.2_K3.1_C3.2_[C-2A]_[T-1G]_H3.1_A3.1_F3.1_T3.2_[A10C] (ssRNA)
RNA: UUUGAUUAAUAUGAUAUCGUUCUUUCUAGUGUAUAUAUCUUCUUUCUCGAUAUCAUAUUAAUCUUU
B4: Id_ii_S2_P3E.2_K3.1_C3.2_[C-2A]_[T-1A]_H3.1_A3.1_F3.1_T3.2_[T9A]_[A10T] (ssRNA)
RNA: UUUGAUUAAUAUGAUAUCGUUCUUUCUAAUGUAUAUAAUUUCUUUCUCGAUAUCAUAUUAAUCUUU
B5: Id_ii_S2_P3E.2_K3.1_C3.2_[T-1G]_H3.1_A3.1_F3.1_T3.2_[A10T] (ssRNA)
RNA: UUUGAUUAAUAUGAUAUCGUUCUUUCUCGUGUAUAUAUUUUCUUUCUCGAUAUCAUAUUAAUCUUU
B6: Id_ii_S2_P3E.2_K3.1_C3.2_[C-2A]_[T-1C]_H3.1_A3.1_F3.1_T3.2_[A10C] (ssRNA)
RNA: UUUGAUUAAUAUGAUAUCGUUCUUUCUACUGUAUAUAUCUUCUUUCUCGAUAUCAUAUUAAUCUUU
B7: Id_ii_S2_P3E.2_K3.1_C3.2_[T-1C]_H3.1_A3.1_F3.1_T3.2_[A10T] (ssRNA)
RNA: UUUGAUUAAUAUGAUAUCGUUCUUUCUCCUGUAUAUAUUUUCUUUCUCGAUAUCAUAUUAAUCUUU
B8: Id_ii_S2_P3E.2_K3.1_C3.2_[C-2A]_H3.1_A3.1_F3.1_T3.2_[T9C]_[A10C] (ssRNA)
RNA: UUUGAUUAAUAUGAUAUCGUUCUUUCUAUUGUAUAUACCUUCUUUCUCGAUAUCAUAUUAAUCUUU
B9: Id_ii_S2_P3E.2_K3.1_C3.2_[T-1A]_H3.1_A3.1_F3.1_T3.2_[T9A]_[A10G] (ssRNA)
RNA: UUUGAUUAAUAUGAUAUCGUUCUUUCUCAUGUAUAUAAGUUCUUUCUCGAUAUCAUAUUAAUCUUU
B10: Id_ii_S2_P3E.2_K3.1_C3.2_[T-1C]_H3.1_A3.1_F3.1_T3.2_[T9G]_[A10T] (ssRNA)
RNA: UUUGAUUAAUAUGAUAUCGUUCUUUCUCCUGUAUAUAGUUUCUUUCUCGAUAUCAUAUUAAUCUUU
B11: Id_ii_S2_P3E.2_K3.1_C3.2_[C-2A]_H3.1_A3.1_F3.1_T3.2_[T9C]_[A10G] (ssRNA)
RNA: UUUGAUUAAUAUGAUAUCGUUCUUUCUAUUGUAUAUACGUUCUUUCUCGAUAUCAUAUUAAUCUUU
B12: Id_ii_S2_P3E.2_K3.1_C3.2_[C-2A]_[T-1C]_H3.1_A3.1_F3.1_T3.2_[T9C]_[A10G] (ssRNA)
RNA: UUUGAUUAAUAUGAUAUCGUUCUUUCUACUGUAUAUACGUUCUUUCUCGAUAUCAUAUUAAUCUUU
B13: Id_ii_S2_P3E.2_K3.1_C3.2_[C-2A]_[T-1A]_H3.1_A3.1_F3.1_T3.2_[A10G] (ssRNA)
RNA: UUUGAUUAAUAUGAUAUCGUUCUUUCUAAUGUAUAUAUGUUCUUUCUCGAUAUCAUAUUAAUCUUU
B14: Id_ii_S2_P3E.2_K3.1_C3.2_[T-1C]_H3.1_A3.1_F3.1_T3.2_[T9A]_[A10G] (ssRNA)
RNA: UUUGAUUAAUAUGAUAUCGUUCUUUCUCCUGUAUAUAAGUUCUUUCUCGAUAUCAUAUUAAUCUUU
B15: Id_ii_S2_P3E.2_K3.1_C3.2_[C-2A]_H3.1_A3.1_F3.1_T3.2_[A10T] (ssRNA)
RNA: UUUGAUUAAUAUGAUAUCGUUCUUUCUAUUGUAUAUAUUUUCUUUCUCGAUAUCAUAUUAAUCUUU
B16: Id_ii_S2_P3E.2_K3.1_C3.2_[C-2A]_[T-1G]_H3.1_A3.1_F3.1_T3.2_[T9A]_[A10G] (ssRNA)
RNA: UUUGAUUAAUAUGAUAUCGUUCUUUCUAGUGUAUAUAAGUUCUUUCUCGAUAUCAUAUUAAUCUUU
B17: Id_ii_S2_P3E.2_K3.1_C3.2_[T-1C]_H3.1_A3.1_F3.1_T3.2_[T9A]_[A10T] (ssRNA)
RNA: UUUGAUUAAUAUGAUAUCGUUCUUUCUCCUGUAUAUAAUUUCUUUCUCGAUAUCAUAUUAAUCUUU
B18: Id_ii_S2_P3E.2_K3.1_C3.2_[T-1C]_H3.1_A3.1_F3.1_T3.2_[T9C]_[A10G] (ssRNA)
RNA: UUUGAUUAAUAUGAUAUCGUUCUUUCUCCUGUAUAUACGUUCUUUCUCGAUAUCAUAUUAAUCUUU
B19: Id_ii_S2_P3E.2_K3.1_C3.2_[C-2A]_[T-1A]_H3.1_A3.1_F3.1_T3.2_[A10T] (ssRNA)
RNA: UUUGAUUAAUAUGAUAUCGUUCUUUCUAAUGUAUAUAUUUUCUUUCUCGAUAUCAUAUUAAUCUUU
B20: Id_ii_S2_P3E.2_K3.1_C3.2_[T-1C]_H3.1_A3.1_F3.1_T3.2_[T9A]_[A10C] (ssRNA)
RNA: UUUGAUUAAUAUGAUAUCGUUCUUUCUCCUGUAUAUAACUUCUUUCUCGAUAUCAUAUUAAUCUUU
B21: Id_ii_S2_P3E.2_K3.1_C3.2_[T-1A]_H3.1_A3.1_F3.1_T3.2_[T9G]_[A10T] (ssRNA)
RNA: UUUGAUUAAUAUGAUAUCGUUCUUUCUCAUGUAUAUAGUUUCUUUCUCGAUAUCAUAUUAAUCUUU
B22: Id_ii_S2_P3E.2_K3.1_C3.2_[T-1G]_H3.1_A3.1_F3.1_T3.2_[T9G]_[A10G] (ssRNA)
RNA: UUUGAUUAAUAUGAUAUCGUUCUUUCUCGUGUAUAUAGGUUCUUUCUCGAUAUCAUAUUAAUCUUU
B23: Id_ii_S2_P3E.2_K3.1_C3.2_[C-2A]_[T-1A]_H3.1_A3.1_F3.1_T3.2_[T9G]_[A10C] (ssRNA)
RNA: UUUGAUUAAUAUGAUAUCGUUCUUUCUAAUGUAUAUAGCUUCUUUCUCGAUAUCAUAUUAAUCUUU
B24: Id_ii_S2_P3E.2_K3.1_C3.2_[C-2A]_[T-1C]_H3.1_A3.1_F3.1_T3.2_[T9A] (ssRNA)
RNA: UUUGAUUAAUAUGAUAUCGUUCUUUCUACUGUAUAUAAAUUCUUUCUCGAUAUCAUAUUAAUCUUU
B25: Id_ii_S2_P3E.2_K3.1_C3.2_[C-2A]_[T-1C]_H3.1_A3.1_F3.1_T3.2_[T9G]_[A10C] (ssRNA)
RNA: UUUGAUUAAUAUGAUAUCGUUCUUUCUACUGUAUAUAGCUUCUUUCUCGAUAUCAUAUUAAUCUUU
B26: Id_ii_S2_P3E.2_K3.1_C3.2_[T-1G]_H3.1_A3.1_F3.1_T3.2_[T9A]_[A10T] (ssRNA)
RNA: UUUGAUUAAUAUGAUAUCGUUCUUUCUCGUGUAUAUAAUUUCUUUCUCGAUAUCAUAUUAAUCUUU
B27: Id_ii_S2_P3E.2_K3.1_C3.2_[T-1A]_H3.1_A3.1_F3.1_T3.2_[T9C]_[A10T] (ssRNA)
RNA: UUUGAUUAAUAUGAUAUCGUUCUUUCUCAUGUAUAUACUUUCUUUCUCGAUAUCAUAUUAAUCUUU
B28: Id_ii_S2_P3E.2_K3.1_C3.2_[C-2A]_[T-1G]_H3.1_A3.1_F3.1_T3.2_[A10T] (ssRNA)
RNA: UUUGAUUAAUAUGAUAUCGUUCUUUCUAGUGUAUAUAUUUUCUUUCUCGAUAUCAUAUUAAUCUUU
B29: Id_ii_S2_P3E.2_K3.1_C3.2_[C-2A]_[T-1G]_H3.1_A3.1_F3.1_T3.2_[A10G] (ssRNA)
RNA: UUUGAUUAAUAUGAUAUCGUUCUUUCUAGUGUAUAUAUGUUCUUUCUCGAUAUCAUAUUAAUCUUU
B30: Id_ii_S2_P3E.2_K3.1_C3.2_[T-1G]_H3.1_A3.1_F3.1_T3.2_[T9A]_[A10G] (ssRNA)
RNA: UUUGAUUAAUAUGAUAUCGUUCUUUCUCGUGUAUAUAAGUUCUUUCUCGAUAUCAUAUUAAUCUUU
B31: Id_ii_S2_P3E.2_K3.1_C3.2_[C-2A]_H3.1_A3.1_F3.1_T3.2_[T9C]_[A10T] (ssRNA)
RNA: UUUGAUUAAUAUGAUAUCGUUCUUUCUAUUGUAUAUACUUUCUUUCUCGAUAUCAUAUUAAUCUUU
B32: Id_ii_S2_P3E.2_K3.1_C3.2_[C-2A]_H3.1_A3.1_F3.1_T3.2 (ssRNA)
RNA: UUUGAUUAAUAUGAUAUCGUUCUUUCUAUUGUAUAUAUAUUCUUUCUCGAUAUCAUAUUAAUCUUU
B33: Id_ii_S2_P3E.2_K3.1_C3.2_[T-1C]_H3.1_A3.1_F3.1_T3.2_[A10C] (ssRNA)
RNA: UUUGAUUAAUAUGAUAUCGUUCUUUCUCCUGUAUAUAUCUUCUUUCUCGAUAUCAUAUUAAUCUUU
B34: Ib_S1_P5E.1_K5.1_C5.1_H5.1_[G2A]_A5.1_F5.1_[T8A]_T5.1 (ssRNA)
RNA: UCUCUUUAUAUUAAUAUCUCUU
B35: Ib_S1_P5E.1_K5.1_C5.1_H5.1_[T3C]_A5.1_F5.1_[T8C]_T5.1 (ssRNA)
RNA: UCUCUUUGCAUUACUAUCUCUU

Molecular target: T1, PUF4 RNA-binding domain
Assay: Mg; RNA-MaP; 20 mM Na-HEPES pH 7.4, 30 mM KOAc, 0.75 mM MgCl2, 0.1% Tween-20, 5% glycerol, 0.1 mg/mL BSA, 2 mM DTT; 25 C; 0.0125-409.6 nM protein
Details: tags: N-His6-TEV cleaved; C-SNAP kept, Cy3B-labelled; label: tethered on chip by stalled RNA polymerase

With B1 as the binder, how does the Kd read?
The Kd was 728 nM.

For B2, which Kd is on record?
The Kd was 1.24 nM.

How did the Kd turn out when B3 was run?
The Kd was 38.5 nM.

B4 was tested. Which Kd did it give?
The Kd was 10.1 nM.

How did the Kd turn out when B5 was run?
Its Kd is 1.39 nM.

How did the Kd turn out when B6 was run?
The Kd was 1.69 nM.

For B7, which Kd is on record?
The Kd was 1.22 nM.

For B8, which Kd is on record?
The Kd was 6.81 nM.

For B9, which Kd is on record?
Its Kd is 15.2 nM.

How did the Kd turn out when B10 was run?
The Kd was 2.32 nM.

With B11 as the binder, how does the Kd read?
The Kd was 19 nM.

How did the Kd turn out when B12 was run?
The Kd was 49.4 nM.

Which Kd does the source give for B13 here?
The Kd was 7.2 nM.

How did the Kd turn out when B14 was run?
The Kd was 4.04 nM.

How did the Kd turn out when B15 was run?
Its Kd is 3.05 nM.

Which Kd does the source give for B16 here?
The Kd was 10.2 nM.

With B17 as the binder, how does the Kd read?
Its Kd is 1.48 nM.

How did the Kd turn out when B18 was run?
Its Kd is 4.24 nM.

With B19 as the binder, how does the Kd read?
The Kd was 6.37 nM.

Which Kd does the source give for B20 here?
The Kd was 2.58 nM.

Which Kd does the source give for B21 here?
The Kd was 3.93 nM.

Which Kd does the source give for B22 here?
The Kd was 10.2 nM.

How did the Kd turn out when B23 was run?
The Kd was 10 nM.

With B24 as the binder, how does the Kd read?
Its Kd is 3.66 nM.

For B25, which Kd is on record?
Its Kd is 7.15 nM.

How did the Kd turn out when B26 was run?
Its Kd is 1.85 nM.

Which Kd does the source give for B27 here?
Its Kd is 5.2 nM.

With B28 as the binder, how does the Kd read?
Its Kd is 4.88 nM.

Which Kd does the source give for B29 here?
The Kd was 5.7 nM.

Which Kd does the source give for B30 here?
The Kd was 7.62 nM.

B31 was tested. Which Kd did it give?
Its Kd is 8.7 nM.

How did the Kd turn out when B32 was run?
Its Kd is 5.13 nM.

For B33, which Kd is on record?
The Kd was 0.998 nM.

B34 was tested. Which Kd did it give?
Its Kd is 698 nM.

With B35 as the binder, how does the Kd read?
The Kd was 1370 nM.

Source: publication PMC9352680, “A comprehensive thermodynamic model for RNA binding by the Saccharomyces cerevisiae Pumilio protein PUF4”
